The values that follow come from article doi:10.1101/395996, “An interaction network of the human SEPT9 established by quantitative mass spectrometry reveals an interplay with myosin motors” (bioRxiv, 2018).

The target in the assay is T1, 6his-SEPT9 (human, UniProt Q9UHD8 2-586).
T1 construct: SEPT9, human, PCR amplified from the GFP-SEPT9_i1 plasmid; the forward primer starts at the second codon (aag aag tct tac tca gga gg), the reverse primer holds the stop codon; also called 6his tagged SEPT9; 6his-tagged SEPT9; source: E. coli, purified (IMAC, approx. 70 % purity; desalted into PBS); not shown: His6, N-terminal, kept
T1 sequence (looked up): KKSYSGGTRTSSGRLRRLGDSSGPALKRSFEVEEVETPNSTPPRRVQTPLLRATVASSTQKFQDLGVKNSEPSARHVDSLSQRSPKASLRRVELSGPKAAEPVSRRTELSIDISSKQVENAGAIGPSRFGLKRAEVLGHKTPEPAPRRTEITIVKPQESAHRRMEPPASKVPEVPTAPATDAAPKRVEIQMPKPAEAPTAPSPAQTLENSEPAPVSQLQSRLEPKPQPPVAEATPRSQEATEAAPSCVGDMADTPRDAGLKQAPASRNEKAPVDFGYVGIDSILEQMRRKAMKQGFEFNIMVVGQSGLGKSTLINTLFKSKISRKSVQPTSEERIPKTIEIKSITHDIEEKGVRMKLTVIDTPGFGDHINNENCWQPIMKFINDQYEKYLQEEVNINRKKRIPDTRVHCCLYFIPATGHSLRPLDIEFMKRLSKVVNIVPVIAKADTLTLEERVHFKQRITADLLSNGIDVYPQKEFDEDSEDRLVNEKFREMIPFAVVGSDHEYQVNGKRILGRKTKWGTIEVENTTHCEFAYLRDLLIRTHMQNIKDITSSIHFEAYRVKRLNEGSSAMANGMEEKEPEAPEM
Briefly: pull-down; GST fusions immobilised on Glutathione Sepharose from crude E. coli extract, incubated with 2 µM 6his-SEPT9 for 1 h in PBS; Western blot with anti-6his antibody; free GST as control. The settings on record: both partners purified.

B1: GST-MYO1C_(809-1063) (domain or fragment, human, UniProt O00159 809-1063, looked up)
chain: LDHVRTSFLLNLRRQLPQNVLDTSWPTPPPALREASELLRELCIKNMVWKYCRSISPEWKQQLQQKAVASEIFKGKKDNYPQSVPRLFISTRLGTDEISPRVLQALGSEPIQYAVPVVKYDRKGYKPRSRQLLLTPNAVVIVEDAKVKQRIDYANLTGISVSSLSDSLFVLHVQRADNKQKGDVVLQSDHVIETLTKTALSANRVNSININQGSITFAGGPGRDGTIDFTPGSELLITKAKNGHLAVVAPRLNSR
notes: MYO1C, C-terminal tail fragment, amino acids 809-1063, amplified from cDNA of human 1306 fibroblast mRNA; cloned in pGEX2T; also called C-terminal tail fragment of MYO1C; source: E. coli, immobilised on Glutathione Sepharose from the crude extract; not shown: GST, N-terminal, kept
Turning to B1, the binding result is on record as “binds”.

B2: GST-MYO6_(835-1294) (domain or fragment, UniProt Q9UM54 835-1294, looked up)
chain: PRIDGLVKVGTLKKRLDKFNEVVSVLKDGKPEMNKQIKNLEISIDTLMAKIKSTMMTQEQIQKEYDALVKSSEELLSALQKKKQQEEEAERLRRIQEEMEKERKRREEDEKRRRKEEEERRMKLEMEAKRKQEEEERKKREDDEKRIQAEVEAQLARQKEEESQQQAVLEQERRDRELALRIAQSEAELISDEAQADLALRRSLDSYPVSKNDGTRPKMTPEQMAKEMSEFLSRGPAVLATKAAAGTKKYDLSKWKYAELRDTINTSCDIELLAACREEFHRRLKVYHAWKSKNKKRNTETEQRAPKSVTDYDFAPFLNNSPQQNPAAQIPARQREIEMNRQQRFFRIPFIRPADQYKDPQSKKKGWWYAHFDGPWIARQMELHPDKPPILLVAGKDDMEMCELNLEETGLTRKRGAEILPRQFEEIWERCGGIQYLQNAIESRQARPTYATAMLQSLLK
notes: cloned in pGEX2T; also called C-terminal tail fragment of MYO6; source: E. coli, immobilised on Glutathione Sepharose from the crude extract; not shown: GST, N-terminal, kept
For B2, the binding result is “binds”.
